The source of these data is patent US20250090523A1, “PHARMACEUTICAL COMPOSITION OR DRUG KIT FOR ALLEVIATING OR TREATING FIBROTIC DISEASES, AND USE THEREOF” (SHANGHAI SYNVIDA BIOTECHNOLOGY CO. LTD., priority 2021, published 2025).

The labels stand for the following.
B1: LF16: anti-human Pear1 monoclonal antibody; VH SEQ ID NO: 5, VL SEQ ID NO: 20 (antibody, V domains shown)
VH: EVQLQQSGPELVKPGASMKISCKASGYAFTGYTMNWVKQSHGKNLDWIGVINGYNGGTSYNQKFKGKATLTVDKSSSTAYMELLSLTSEDSAIYYCARGGPTTGFVYWGQGTLVTVSA
VL: DIQMTQTSSSFSVSLGDRVTITCKASEDIYNRLAWYQQKPGNAPRLLISGATSLETGVPSRFSGSGSGKDYTLSITSLQTEDVATYYCQQYWSTPTFGAGTKLELK
B2: LF11: anti-human Pear1 monoclonal antibody; VH SEQ ID NO: 2, VL SEQ ID NO: 18 (antibody, V domains shown)
VH: EVQLQQSGPELVKPGASMKISCKASGYSFTGYPMNWVKQTHGKNLEWIGLINPYNGGTSYNQKFKGKATLTVDKSSSTAYMELLSLTSDESAVYYCARGGVRPFDFWGQGTLVTVSA
VL: DIVITQSPAIMSASPGEKVTMTCSARSSVSYMYWYQQKPGSSPRLLIYDTSKLASGVPVRFSGSGSGTSYSLTISRMEAEDAATYFCQQWSSYPPTFGGGTKLEIK
B3: LF15: anti-human Pear1 monoclonal antibody; VH SEQ ID NO: 4, VL SEQ ID NO: 19 (antibody, V domains shown)
VH: EVQLQQSGPELVKPGASMKISCKASGYSFTGYTMNWVKQSHGENLEWIGVINPYNGGTSYNQKFKGKATLTVDKSFSTAYMEILSLTSEDSAVYYCSRGGGNSWFAYWGQGTLVTVSA
VL: DIQMTQTSSYLSVSLGGRVTITCKASDHINNWLAWYQQKPGNAPRLLISGATSLETGVPSRFSGSGSGTDYSLTITSLQTEDVATYYCQQYWSIPTFGGGTRLEIK

For the test, the system named is IPF fibroblasts. The test is described as follows: qPCR of extracellular matrix genes collagen 7a1 and matrix metalloproteinase inhibitor 1 in TGFβ-induced IPF fibroblasts. It counts as cell-based, human. To be noted: Example 3, FIG. 4-6, TGFβ-induced IPF fibroblasts treated 48 hours, 18sRNA reference. The text has this:
IPF fibroblasts of patients were purchased from the ATCC cell library.
IPF fibroblasts in Method 2 were collected. Total mRNA was extracted by Trizol method (Invitrogen, Carlsbad, CA) according to standard protocols. Complementary DNA was synthesized using reverse transcriptase (Takara). ABI7000 Real-time PCR instrument (Life Technologies) was used to detect gene expression and the PCR primer sequences are shown in Table 1. The 18sRNA gene was used as an internal reference.
Experimental groups including anti-Pear1 antibodies LF11, LF15, LF16 used alone, and their combinations with pirfenidone or nintedanib respectively, and experimental groups including pirfenidone or nintedanib used alone and a control group were established. TGFβ-induced IPF fibroblasts were treated for 48 hours, and then cells were collected. The qPCR method was used to detect the effect on the synthesis of extracellular matrix proteins collagen 7a1 and matrix metalloproteinase inhibitor 1 (primers are shown in Table 1).
Background: Quantitative PCR measures a nucleic acid by following its amplification.
`Cc1ccc(=O)n(-c2ccccc2)c1` [pirfenidone, reference compound]: the “inhibition of expression of extracellular matrix proteins (collagen 7a1, matrix metalloproteinase inhibitor 1) in IPF fibroblasts” value (“inhibition” for short) is given as “inhibit the expression of extracellular matrix proteins in IPF fibroblasts to some extent”. For `COC(=O)c1ccc2c(c1)NC(=O)/C2=C(\Nc1ccc(N(C)C(=O)CN2CCN(C)CC2)cc1)c1ccccc1` [nintedanib, reference compound] the value was “inhibit the expression of extracellular matrix proteins in IPF fibroblasts to some extent”.

As to B1, the “inhibition” value is listed as “inhibit the expression of extracellular matrix proteins in IPF fibroblasts to some extent”. Turning to B2, the “inhibition” value is reported as “inhibit the expression of extracellular matrix proteins in IPF fibroblasts to some extent”. For B3 the value was “inhibit the expression of extracellular matrix proteins in IPF fibroblasts to some extent”.
